From patent publication US20180246086A1

Molecular target: Hapten-1-BSA, a general complete antigen of type I pyrethroid (bovine) (UniProt P02769)
Test: indirect non-competitive ELISA, plate coated with Hapten-1-BSA at 2.0, 1.0, 0.5 and 0.25 µg/mL, antibody titrated

Sequence of Hapten-1-BSA, a general complete antigen of type I pyrethroid (bovine) (P02769 25-607 limits assumed, form in doubt): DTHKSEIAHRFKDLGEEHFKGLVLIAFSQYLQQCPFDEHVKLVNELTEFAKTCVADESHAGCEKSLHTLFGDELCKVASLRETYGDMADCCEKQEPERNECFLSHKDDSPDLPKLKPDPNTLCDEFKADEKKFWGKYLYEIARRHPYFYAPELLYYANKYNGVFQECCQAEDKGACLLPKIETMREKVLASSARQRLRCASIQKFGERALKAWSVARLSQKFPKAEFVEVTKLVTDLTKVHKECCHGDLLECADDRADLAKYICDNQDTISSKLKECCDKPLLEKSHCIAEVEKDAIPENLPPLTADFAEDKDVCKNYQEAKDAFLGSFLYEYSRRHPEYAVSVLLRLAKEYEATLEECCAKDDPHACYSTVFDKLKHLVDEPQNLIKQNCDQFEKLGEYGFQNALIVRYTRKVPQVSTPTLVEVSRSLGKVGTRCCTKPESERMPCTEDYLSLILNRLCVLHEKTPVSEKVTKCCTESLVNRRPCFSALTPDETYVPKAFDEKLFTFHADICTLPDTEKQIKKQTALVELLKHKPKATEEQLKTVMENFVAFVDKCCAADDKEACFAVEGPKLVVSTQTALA

B1: universal monoclonal antibody against type I pyrethroid secreted by hybridoma cell line QW8# (antibody, IgG2a, V domains shown)
VH: QVTLKESGPGILQPSQTLSLTCSFSGFSLSTYGIGIGWIRQSSGRGLEWLAHIWWNDNRYYNIALKSRLTISKDASNNQFFLKLASVDTADIATYYCVRGYGRPFYAMDYWGQGTTVTVSS
VL: QAVVTQESALTTSPGETVTLTCRSSTGAVTTSNYVNWVQEKPDHLFTGLIGGTNNRGPGVPARFSGSLIGDKAALTITGTQTEDEAIYFCALWYSNHWVFGGGTKLTVL
- Ka: 2.16e+08 M⁻¹
